{
  "source": "paper PMC5863359",
  "about": "“A novel acetyl xylan esterase enabling complete deacetylation of substituted xylans” (Biotechnology for Biofuels, 2018)",
  "proteins": {"B1": {"name": "FjoAcXE (Flavobacterium johnsoniae UW101) (protein)", "chain": "GCTSNKALIKTGDKKEDQNWTGTWATAQMLVEPKNMPPEPGLAQNTLRQIIKVSLGGKQIRLRFSNLFSDQPAVLKSVSVANVTEAPAVDIKTQKILSFKGSPQVTLGADEVVYSDAFDFELQPGQLLAITIHYGEISSNVSGHPGSRTTSYILQGDHINNESFAGAVKTDHWYSIMGVDISSVKNESNVVCLGNSIIDGRGSGTNKQNRWTDILASRLNANKNTAHIGVLNLGIGGNCVVRGGLGPTALNRFDRDVLSQSGTKWLIILEGINDIGGIRKAEDASVTAKEIIEGYKVMIDKAHAKGIKVFGGTILPFEKSFYDAPFKQDARDIVNEWIRTKGNFDAVIDFDKAMASDVGSKTILPDMHDNDFLHPNEKGYQRMGETVDLDLFQ", "notes": "predicted signal peptide (residues 1-21) removed; N-terminal His6-tag (p15TV-L); codon-optimized synthetic gene, expressed in E. coli BL21(DE3) codon plus"}},
  "key": {"[1]": {"substrate": "CC(=O)Oc1ccc([N+](=O)[O-])cc1", "assay": "spectrophotometric hydrolysis assay (A410), Michaelis-Menten fit", "format": "biochemical, Flavobacterium johnsoniae", "conditions": "50 mM HEPES pH 8.0, 30 °C", "excerpt": "spectrophotometric hydrolysis assay (A410), Michaelis-Menten fit on FjoAcXE"}, "[2]": {"substrate": "CC(=O)Oc1ccc2c(C)cc(=O)oc2c1", "assay": "spectrophotometric hydrolysis assay (A354), Michaelis-Menten fit", "format": "biochemical, Flavobacterium johnsoniae", "conditions": "50 mM HEPES pH 8.0, 10% DMSO, 30 °C", "excerpt": "spectrophotometric hydrolysis assay (A354), Michaelis-Menten fit on FjoAcXE"}},
  "data": [
    {"protein": "B1", "values": [
      {"measurement": "Km", "setting": "[1]", "value": "900 ± 100", "unit": "µM"},
      {"measurement": "kcat", "setting": "[1]", "value": "121 ± 3", "unit": "s⁻¹"},
      {"measurement": "kcat/Km", "setting": "[1]", "value": 128000, "unit": "M⁻¹ s⁻¹"},
      {"measurement": "Km", "setting": "[2]", "value": "800 ± 100", "unit": "µM"},
      {"measurement": "kcat", "setting": "[2]", "value": "95.1 ± 4.4", "unit": "s⁻¹"},
      {"measurement": "kcat/Km", "setting": "[2]", "value": 115000, "unit": "M⁻¹ s⁻¹"}
    ]}
  ]
}
